Measured values as given in patent US20160159862A1 (PROTAGONIST THERAPEUTICS, published 2016).
Blank lines part the entries; values can stand above or below the binder they belong to. Bridge positions count the residues as written; N and C are the ends. Square brackets hold non-standard residues; d marks the D form. Ends that are not written are not given here. Bip = N[C@@H](Cc1ccc(-c2ccccc2)cc1)C(=O)O; 1Nal = N[C@@H](Cc1cccc2ccccc12)C(=O)O; 2Nal = N[C@@H](Cc1ccc2ccccc2c1)C(=O)O; d1Nal = N[C@H](Cc1cccc2ccccc12)C(=O)O; d2Nal = N[C@H](Cc1ccc2ccccc2c1)C(=O)O; NMeR = CN[C@@H](CCCNC(=N)N)C(=O)O; hPhe = N[C@@H](CCc1ccccc1)C(=O)O; Tic = O=C(O)[C@@H]1Cc2ccccc2CN1; β3hE = N[C@@H](CCC(=O)O)CC(=O)O; Aic = NC1(C(=O)O)Cc2ccccc2C1; NMeK = CN[C@@H](CCCCN)C(=O)O; Pen = CC(C)(S)[C@H](N)C(=O)O; dNMeK = CN[C@H](CCCCN)C(=O)O

Experiments:
[1] = biological target: rh integrin α4β7 (R&D Systems #5397-A30) (human) (UniProt P13612); experiment: α4β7-MAdCAM competition ELISA
[2] = biological target: α4β7 integrin on human cells (human, UniProt P13612 34-1032; P26010 20-798); experiment: cell-based or functional assay
[3] = biological target: α4β1 (R&D Systems #5668-A4) (UniProt P13612); experiment: α4β1-VCAM competition ELISA
[4] = biological target: α4β7 integrin on mouse TK1 cells (mouse, UniProt Q00651 41-1039; P26011 20-806); experiment: cell-based or functional assay
Chain of α4β7 integrin on mouse TK1 cells (Q00651 41-1039, chain 1 of 2): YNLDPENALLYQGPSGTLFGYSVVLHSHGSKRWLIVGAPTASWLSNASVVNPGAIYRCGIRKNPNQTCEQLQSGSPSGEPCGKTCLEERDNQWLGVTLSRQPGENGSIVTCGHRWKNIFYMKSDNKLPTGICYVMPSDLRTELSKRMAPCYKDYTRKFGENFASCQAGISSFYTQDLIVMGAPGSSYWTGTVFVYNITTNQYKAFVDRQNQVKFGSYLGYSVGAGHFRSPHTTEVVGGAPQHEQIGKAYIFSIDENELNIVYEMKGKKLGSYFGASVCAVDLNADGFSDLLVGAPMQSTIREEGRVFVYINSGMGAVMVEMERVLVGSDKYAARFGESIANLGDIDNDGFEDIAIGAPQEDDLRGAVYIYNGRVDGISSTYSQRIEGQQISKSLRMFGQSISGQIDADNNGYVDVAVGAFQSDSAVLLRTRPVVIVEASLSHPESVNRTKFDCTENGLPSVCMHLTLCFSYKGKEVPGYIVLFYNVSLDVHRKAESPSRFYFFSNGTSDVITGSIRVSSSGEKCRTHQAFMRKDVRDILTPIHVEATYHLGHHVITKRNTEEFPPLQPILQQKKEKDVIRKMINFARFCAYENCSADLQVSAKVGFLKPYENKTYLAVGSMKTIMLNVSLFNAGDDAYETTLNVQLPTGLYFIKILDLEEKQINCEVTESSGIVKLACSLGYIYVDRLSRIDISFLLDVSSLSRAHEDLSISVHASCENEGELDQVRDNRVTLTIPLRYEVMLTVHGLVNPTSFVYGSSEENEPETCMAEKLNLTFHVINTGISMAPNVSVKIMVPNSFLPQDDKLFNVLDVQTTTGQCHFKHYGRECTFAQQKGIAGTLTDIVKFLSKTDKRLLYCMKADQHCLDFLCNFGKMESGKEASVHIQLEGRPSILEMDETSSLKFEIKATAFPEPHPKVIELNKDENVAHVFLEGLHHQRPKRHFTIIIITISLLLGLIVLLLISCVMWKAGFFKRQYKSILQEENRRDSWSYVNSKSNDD
Chain of α4β7 integrin on mouse TK1 cells (P26011 20-806, chain 2 of 2): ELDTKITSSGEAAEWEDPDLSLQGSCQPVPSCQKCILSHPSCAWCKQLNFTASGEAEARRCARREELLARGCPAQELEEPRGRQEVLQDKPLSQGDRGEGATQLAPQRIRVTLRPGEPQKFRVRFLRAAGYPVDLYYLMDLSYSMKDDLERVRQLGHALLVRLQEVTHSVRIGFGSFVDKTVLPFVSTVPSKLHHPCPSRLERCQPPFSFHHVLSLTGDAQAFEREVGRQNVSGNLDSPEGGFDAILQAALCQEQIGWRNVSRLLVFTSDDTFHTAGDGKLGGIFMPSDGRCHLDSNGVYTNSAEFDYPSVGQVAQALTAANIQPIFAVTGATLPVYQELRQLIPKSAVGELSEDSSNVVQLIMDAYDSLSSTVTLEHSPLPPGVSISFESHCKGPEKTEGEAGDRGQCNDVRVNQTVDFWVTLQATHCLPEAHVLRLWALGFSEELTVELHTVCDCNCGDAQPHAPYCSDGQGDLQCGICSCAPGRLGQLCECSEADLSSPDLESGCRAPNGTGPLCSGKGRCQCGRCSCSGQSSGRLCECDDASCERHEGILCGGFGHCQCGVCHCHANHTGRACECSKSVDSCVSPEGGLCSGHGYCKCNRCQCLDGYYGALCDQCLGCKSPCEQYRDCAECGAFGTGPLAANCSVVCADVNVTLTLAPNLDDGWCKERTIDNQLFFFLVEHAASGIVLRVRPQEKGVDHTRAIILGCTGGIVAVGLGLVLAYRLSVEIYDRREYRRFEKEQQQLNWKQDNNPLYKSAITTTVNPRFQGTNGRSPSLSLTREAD

IC50 [1]: < 10 nM | α4β7 cell (Hu) IC50 [2]: ≤ 10 nM | IC50 [3]: > 1000 nM
B1: SEQ ID NO 137 (peptide)
peptide: Ac-[Pen][NMeR]SDTL[Pen][2Nal][β3hE][dK]-NH2
modifications: disulfide 1-7 (inferred); also: homodimer via DIG

IC50 [1]: > 10 nM
B6: SEQ ID NO 10 (peptide)
peptide: Ac-[Pen][NMeR]SDTL[Pen][d1Nal]E[dK]-NH2
modifications: disulfide 1-7
SMILES: CC(=O)N[C@@H]1C(=O)N(C)[C@@H](CCCNC(=N)N)C(=O)N[C@@H](CO)C(=O)N[C@@H](CC(=O)O)C(=O)N[C@@H]([C@@H](C)O)C(=O)N[C@@H](CC(C)C)C(=O)N[C@H](C(=O)N[C@H](Cc2cccc3ccccc23)C(=O)N[C@@H](CCC(=O)O)C(=O)N[C@H](CCCCN)C(N)=O)C(C)(C)SSC1(C)C

IC50 [1]: > 10 nM | IC50 [3]: > 500 nM
B7: SEQ ID NO 18 (peptide)
peptide: Ac-[Pen][NMeR]SDTL[Pen][1Nal]E[dNMeK]-NH2
modifications: disulfide 1-7
SMILES: CC(=O)N[C@@H]1C(=O)N(C)[C@@H](CCCNC(=N)N)C(=O)N[C@@H](CO)C(=O)N[C@@H](CC(=O)O)C(=O)N[C@@H]([C@@H](C)O)C(=O)N[C@@H](CC(C)C)C(=O)N[C@H](C(=O)N[C@@H](Cc2cccc3ccccc23)C(=O)N[C@@H](CCC(=O)O)C(=O)N(C)[C@H](CCCCN)C(N)=O)C(C)(C)SSC1(C)C

IC50 [1]: 250 nM | α4β7 cell (Hu) IC50 [2]: > 10000 nM
B8: SEQ ID NO 143 (peptide)
peptide: [Pen][NMeR]SDTL[Pen][2Nal]E
modifications: disulfide 1-7 (inferred); not fully specified (bridges); printed as Cyclo-[Pen-(N-Me-R)-S-D-T-L-Pen-(2-Nal)-E], disulfide

IC50 [1]: > 25 nM
B9: SEQ ID NO 8 (peptide)
peptide: Ac-[Pen][NMeR]SDTL[Pen][1Nal][dE][dK]-NH2
modifications: disulfide 1-7 (inferred)

IC50 [1]: > 10 nM | α4β7 cell (Hu) IC50 [2]: > 10 nM
B10: SEQ ID NO 138 (peptide)
peptide: Ac-[Pen][NMeR]SDTL[Pen][2Nal]E[NMeK]-NH2
modifications: disulfide 1-7 (inferred); also: homodimer via DIG

IC50 [1]: < 10 nM | α4β7 cell (Hu) IC50 [2]: > 10 nM
B12: SEQ ID NO 29 (peptide)
peptide: Ac-[Pen][NMeR]SDTL[Pen][2Nal][dE][dK]-NH2
modifications: disulfide 1-7 (inferred); also: homodimer via DIG linker

IC50 [1]: > 10 nM
B16: SEQ ID NO 88 (peptide)
peptide: Ac-[Pen][NMeR]SDTL[Pen][2Nal][dK]-NH2
modifications: disulfide 1-7
SMILES: CC(=O)N[C@@H]1C(=O)N(C)[C@@H](CCCNC(=N)N)C(=O)N[C@@H](CO)C(=O)N[C@@H](CC(=O)O)C(=O)N[C@@H]([C@@H](C)O)C(=O)N[C@@H](CC(C)C)C(=O)N[C@H](C(=O)N[C@@H](Cc2ccc3ccccc3c2)C(=O)N[C@H](CCCCN)C(N)=O)C(C)(C)SSC1(C)C

IC50 [1]: < 10 nM | α4β7 cell (Hu) IC50 [2]: ≤ 10 nM | IC50 [3]: > 100 nM
B19: SEQ ID NO 134 (peptide)
peptide: Ac-[Pen][NMeR]SDTL[Pen][Bip]E[dK]-NH2
modifications: disulfide 1-7 (inferred); also: homodimer via DIG

IC50 [1]: > 25 nM
B23: SEQ ID NO 51 (peptide)
peptide: Ac-[Pen][NMeR]SDTL[Pen]W[Aic][dK]-NH2
modifications: disulfide 1-7
SMILES: CC(=O)N[C@@H]1C(=O)N(C)[C@@H](CCCNC(=N)N)C(=O)N[C@@H](CO)C(=O)N[C@@H](CC(=O)O)C(=O)N[C@@H]([C@@H](C)O)C(=O)N[C@@H](CC(C)C)C(=O)N[C@H](C(=O)N[C@@H](Cc2c[nH]c3ccccc23)C(=O)NC2(C(=O)N[C@H](CCCCN)C(N)=O)Cc3ccccc3C2)C(C)(C)SSC1(C)C

IC50 [1]: < 10 nM
B24: SEQ ID NO 15 (peptide)
peptide: Ac-[Pen][NMeR]SDTL[Pen][2Nal]E[dNMeK]-NH2
modifications: disulfide 1-7
SMILES: CC(=O)N[C@@H]1C(=O)N(C)[C@@H](CCCNC(=N)N)C(=O)N[C@@H](CO)C(=O)N[C@@H](CC(=O)O)C(=O)N[C@@H]([C@@H](C)O)C(=O)N[C@@H](CC(C)C)C(=O)N[C@H](C(=O)N[C@@H](Cc2ccc3ccccc3c2)C(=O)N[C@@H](CCC(=O)O)C(=O)N(C)[C@H](CCCCN)C(N)=O)C(C)(C)SSC1(C)C

IC50 [1]: < 10 nM | α4β7 cell (Hu) IC50 [2]: > 10 nM | IC50 [3]: > 100 nM
B25: SEQ ID NO 32 (peptide)
peptide: Ac-[Pen][NMeR]SDTL[Pen][1Nal][dE][dK]-NH2
modifications: disulfide 1-7 (inferred); also: homodimer via DIG linker

IC50 [1]: > 10 nM | α4β7 cell (Hu) IC50 [2]: > 100 nM
B26: SEQ ID NO 9 (peptide)
peptide: Ac-[Pen][NMeR]SDTL[Pen][2Nal][dE][dK]-NH2
modifications: disulfide 1-7 (inferred)

IC50 [1]: > 25 nM
B27: SEQ ID NO 11 (peptide)
peptide: Ac-[Pen][NMeR]SDTL[Pen][d2Nal]E[dK]-NH2
modifications: disulfide 1-7
SMILES: CC(=O)N[C@@H]1C(=O)N(C)[C@@H](CCCNC(=N)N)C(=O)N[C@@H](CO)C(=O)N[C@@H](CC(=O)O)C(=O)N[C@@H]([C@@H](C)O)C(=O)N[C@@H](CC(C)C)C(=O)N[C@H](C(=O)N[C@H](Cc2ccc3ccccc3c2)C(=O)N[C@@H](CCC(=O)O)C(=O)N[C@H](CCCCN)C(N)=O)C(C)(C)SSC1(C)C

Further lines, the binder ahead of its results:

B2: SEQ ID NO 41 (peptide)
peptide: Ac-[Pen][NMeR]SDTL[Pen][2Nal]E[dNMeK]-NH2
modifications: disulfide 1-7 (inferred); also: homodimer via DIG linker
IC50 [1]: < 10 nM | α4β7 cell (Hu) IC50 [2]: ≤ 10 nM | IC50 [3]: > 100 nM

B3: SEQ ID NO 23 (peptide)
peptide: Ac-[Pen][NMeR]SDTL[Pen][2Nal]Y[dK]-NH2
modifications: disulfide 1-7 (inferred); also: homodimer via DIG
α4β7 cell (Hu) IC50 [2]: ≤ 10 nM | IC50 [3]: > 100 nM

B4: SEQ ID NO 154 (peptide)
peptide: Ac-[Pen][NMeR]SDTL[Pen][Tic][β3hE]-NH2
modifications: disulfide 1-7 (inferred)
α4β7 cell (Hu) IC50 [2]: > 100 nM | α4β7 cell(Mu) IC50 [4]: > 1000 nM | IC50 [3]: > 1000 nM

B5: SEQ ID NO 12 (peptide)
peptide: Ac-[Pen][NMeR]SDTL[Pen][1Nal][dE][dNMeK]-NH2
modifications: disulfide 1-7
SMILES: CC(=O)N[C@@H]1C(=O)N(C)[C@@H](CCCNC(=N)N)C(=O)N[C@@H](CO)C(=O)N[C@@H](CC(=O)O)C(=O)N[C@@H]([C@@H](C)O)C(=O)N[C@@H](CC(C)C)C(=O)N[C@H](C(=O)N[C@@H](Cc2cccc3ccccc23)C(=O)N[C@H](CCC(=O)O)C(=O)N(C)[C@H](CCCCN)C(N)=O)C(C)(C)SSC1(C)C
IC50 [1]: > 25 nM

B11: SEQ ID NO 142 (peptide)
peptide: Ac-[Pen][NMeR]SDTL[Pen][1Nal][β3hE][NMeK]-NH2
modifications: disulfide 1-7 (inferred); also: homodimer via DIG
IC50 [1]: < 10 nM | PBMC IC50 [2]: > 50 nM | α4β7 cell (Hu) IC50 [2]: ≤ 10 nM | IC50 [3]: > 500 nM

B13: SEQ ID NO 38 (peptide)
peptide: Ac-[Pen][NMeR]SDTL[Pen][1Nal][dE][dNMeK]-NH2
modifications: disulfide 1-7 (inferred); also: homodimer via DIG linker
IC50 [1]: < 10 nM | α4β7 cell (Hu) IC50 [2]: ≤ 10 nM | IC50 [3]: > 100 nM

B14: SEQ ID NO 24 (peptide)
peptide: Ac-[Pen][NMeR]SDTL[Pen][1Nal]E[dK]-NH2
modifications: disulfide 1-7 (inferred); also: homodimer via DIG
IC50 [1]: < 10 nM | α4β7 cell (Hu) IC50 [2]: ≤ 10 nM | IC50 [3]: > 100 nM

B15: SEQ ID NO 44 (peptide)
peptide: Ac-[Pen][NMeR]SDTL[Pen][1Nal]E[dNMeK]-NH2
modifications: disulfide 1-7 (inferred); also: homodimer via DIG linker
IC50 [1]: < 10 nM | α4β7 cell (Hu) IC50 [2]: ≤ 10 nM | α4β7 cell(Mu) IC50 [4]: ≤ 10 nM | IC50 [3]: > 100 nM

B17: SEQ ID NO 155 (peptide)
peptide: Ac-[Pen][NMeR]SDTL[Pen][2Nal][b‑H‑E]-NH2
modifications: disulfide 1-7 (inferred)
α4β7 cell (Hu) IC50 [2]: > 25 nM | α4β7 cell(Mu) IC50 [4]: > 25 nM | IC50 [3]: > 1000 nM

B18: SEQ ID NO 50 (peptide)
peptide: Ac-[Pen][NMeR]SDTL[Pen][2Nal][hPhe][dK]-NH2
modifications: disulfide 1-7
SMILES: CC(=O)N[C@@H]1C(=O)N(C)[C@@H](CCCNC(=N)N)C(=O)N[C@@H](CO)C(=O)N[C@@H](CC(=O)O)C(=O)N[C@@H]([C@@H](C)O)C(=O)N[C@@H](CC(C)C)C(=O)N[C@H](C(=O)N[C@@H](Cc2ccc3ccccc3c2)C(=O)N[C@@H](CCc2ccccc2)C(=O)N[C@H](CCCCN)C(N)=O)C(C)(C)SSC1(C)C
IC50 [1]: > 10 nM

B20: SEQ ID NO 13 (peptide)
peptide: Ac-[Pen][NMeR]SDTL[Pen][2Nal][dE][dNMeK]-NH2
modifications: disulfide 1-7 (inferred)
IC50 [1]: > 10 nM | α4β7 cell (Hu) IC50 [2]: > 100 nM

B21: SEQ ID NO 114 (peptide)
peptide: Ac-[Pen][NMeR]SDTL[Pen][1Nal][dR][dK]-NH2
modifications: disulfide 1-7 (inferred); also: homodimer via DIG
α4β7 cell (Hu) IC50 [2]: > 100 nM

B22: SEQ ID NO 86 (peptide)
peptide: Ac-[Pen][NMeR]SDTL[Pen]WE(OMe)[dK]-NH2
modifications: disulfide 1-7 (inferred); also: homodimer linked by DIG
α4β7 cell (Hu) IC50 [2]: ≤ 10 nM | α4β7 cell(Mu) IC50 [4]: ≤ 10 nM
